Reference: patent US12618828B2, “Probe and method for detecting membrane-associated molecules in living cells” (priority 2021, dated 2026)

B1: GAP43-SSGSSGTG-HALO-GRK2ct (protein)
chain: MLCCMRRTKQVEKNDEDQNSSGSSGTGAEIGTGFPFDPHYVEVLGERMHYVDVGPRDGTPVLFLHGNPTSSYVWRNIIPHVAPTHRCIAPDLIGMGKSDKPDLGYFFDDHVRFMDAFIEALGLEEVVLVIHDWGSALGFHWAKRNPERVKGIAFMEFIRPIPTWDEWPEFARETFQAFRTTDVGRKLIIDQNVFIEGTLPMGVVRPLTEVEMDHYREPFLNPVDREPLWRFPNELPIAGEPANIVALVEEYMDWLHQSPVPKLLFWGTPGVLIPPAEAARLAKSLPNCKAVDIGPGLNLLQEDNPDLIGSEIARWLSTLEISGGSSRNFPLVISERWQQEVAETVYEAVNADTDKIEARKRAKNKQLGHEEDYALGRDCIVHGYMLKLGNPFLTQWQRRYFYLFPNRLEWRGEGESRQSLLTMEQIVSVEETQIKDKKCILLRIKGGKQFVLQCESDPEFVQWKKELTETFMEAQRLLRRAPKFLNKSRSAVVELSKPPLCHRNSNGLGSRG
modifications: HALO labelled with JF-549; GAP43-SSGSSGTG-HALO-GRK2ct
notes: Protein probe: GAP43 fragment anchor, SSGSSGTG linker, HALO (labelled with JF-549), GRK2 fragment with PH domain
B2: KB1753-SNAP-GSGGSGG-hRas (protein)
chain: MSSRGYYHGIWVGEEGRLSRDKDCEMKRTTLDSPLGKLELSGCEQGLHRIIFLGKGTSAADAVEVPAPAAVLGGPEPLMQATAWLNAYFHQPEAIEEFPVPALHHPVFQQESFTRQVLWKLLKVVKFGEVISYSHLAALAGNPAATAAVKTALSGNPVPILIPCHRVVQGDLDVGGYEGGLAVKEWLLAHEGHRLGKPGLGSGGSGGCMSCKCVLS
modifications: SNAP labelled with SNAP Cell 430; KB1753-SNAP-GSGGSGG-hRas
notes: Protein probe: hRas fragment anchor, GSGGSGG linker, SNAP fluorogenic protein (labelled with SNAP Cell 430), peptide KB1753
B3: KB1753-HALO-GSGGSGG-hRas (protein)
chain: MSSRGYYHGIWVGEEGRLSRAEIGTGFPFDPHYVEVLGERMHYVDVGPRDGTPVLFLHGNPTSSYVWRNIIPHVAPTHRCIAPDLIGMGKSDKPDLGYFFDDHVRFMDAFIEALGLEEVVLVIHDWGSALGFHWAKRNPERVKGIAFMEFIRPIPTWDEWPEFARETFQAFRTTDVGRKLIIDQNVFIEGTLPMGVVRPLTEVEMDHYREPFLNPVDREPLWRFPNELPIAGEPANIVALVEEYMDWLHQSPVPKLLFWGTPGVLIPPAEAARLAKSLPNCKAVDIGPGLNLLQEDNPDLIGSEIARWLSTLEISGGSGGSGGCMSCKCVLS
modifications: HALO labelled with JF-549; KB1753-HALO-GSGGSGG-hRas
notes: Protein probe: hRas fragment anchor, GSGGSGG linker, HALO fluorogenic protein (labelled with JF-549), peptide KB1753
B4: KB1753-mScarlet-GSGGSGG-hRas (protein)
chain: MSSRGYYHGIWVGEEGRLSRVSKGEAVIKEFMRFKVHMEGSMNGHEFEIEGEGEGRPYEGTQTAKLKVTKGGPLPFSWDILSPQFMYGSRAFTKHPADIPDYYKQSFPEGFKWERVMNFEDGGAVTVTQDTSLEDGTLIYKVKLRGTNFPPDGPVMQKKTMGWEASTERLYPEDGVLKGDIKMALRLKDGGRYLADFKTTYKAKKPVQMPGAYNVDRKLDITSHNEDYTVVEQYERSEGRHSTGGMDELYKGSGGSGGCMSCKCVLS
modifications: KB1753-mScarlet-GSGGSGG-hRas
notes: Protein probe: hRas fragment anchor, GSGGSGG linker, mScarlet, peptide KB1753

Legend:
Assay type in all cases: cell-based
GβGγ dimer = biological target: T1, GβGγ dimer (Homo sapiens, UniProt P59768+P62873); test: Polarization microscopy of probe in HEK293 cells, with or without cotransfected GβGγ dimer; settings: cotransfection of plasmids encoding the, excitation polarization resolved single-photon confocal microscopy
T1 construct: expressed in transfected cells; host or cells: HEK293
Experimental: (§1) Prior to microscopy observations, mammalian cells (HEK293) were cultured at 37° C. under an atmosphere of 95% air, 5% CO2, in Dulbecco's modified Eagle's medium with Glutamax I and high glucose (Life Technologies), supplemented with 10% fetal bovine serum. Cells were plated on 8-chamber microscopy slides (p-Slides, Ibidi GmbH, Germany). Transfections were carried out using 0.2 μg of plasmid DNA and Lipofectamine 2000 (Life Technologies), according to the protocol of the manufacturer. In cotransfections, 0.2 μg of each of the plasmids were used. Microscopy experiments were carried out 48 h after transfection. […]
(§2) In excitation polarization resolved single-photon laser scanning confocal microscopy, the cells (in the multi-well cover slip) were observed using a single-photon laser scanning confocal microscope Olympus FV1200, modified for excitation-polarization resolved microscopy. […] Fluorescence of wavelengths in the range of 510-610 nm was separated from the excitation light by a long-pass dichroic mirror (DM405/488, Olympus, Japan), diffractive grating, and an adjustable slit, and detected by a photomultiplier. […]
(§3) The resulting images were deconvolved and quantitatively analyzed by following published procedures (Bondar A & al., Communications Biology. 2021 Feb. 12; 4(1):1-2.) that rely on publicly available software tools. […]

[1] = biological target: T2, activated form of the G-protein Gαi1 (Gαi1(Q204L)) (Homo sapiens, UniProt P63096, Q204L); test: Polarization microscopy of probe in HEK293 cells, with or without cotransfected constitutively activated Gαi1(Q204L); settings: cotransfection of Gαi1(Q204L) plasmid, excitation polarization resolved single-photon laser scanning confocal microscopy
T2 construct: expressed in transfected cells; host or cells: HEK293
From the text: A protein (SEQ ID NO:5) that includes as an anchoring moiety a fragment of the protein h-Ras, a flexible peptide linker (amino acid sequence GSGGSGG (SEQ ID NO:1)), a monomeric enhanced green fluorescent protein (meGFP) as a fluorescent moiety, and an affinity binding peptide KB1753 known to bind the activated form of the G-protein Gαi1 (Johnston C A & al., Structure. 2005 Jul. 1; 13(7):1069-80), was encoded into a DNA sequence (SEQ ID NO:6) and cloned into a mammalian expression vector (pcDNA3.1(+)) under the control of the cytomegalovirus (CMV) promoter. The resulting DNA encoding the probe of invention was transfected into HEK293 cells either alone, or along with DNA encoding the target protein of the probe.
Prior to microscopy observations, mammalian cells (HEK293) were cultured at 37° C. under an atmosphere of 95% air, 5% CO2, in Dulbecco's modified Eagle's medium with Glutamax I and high glucose (Life Technologies), supplemented with 10% fetal bovine serum. […]
The cells were observed by excitation polarization resolved single-photon laser scanning confocal microscopy, by excitation polarization resolved two-photon laser scanning microscopy, by excitation polarization resolved single-photon wide-field fluorescence microscopy, and by fluorescence polarization resolved single-photon laser scanning confocal microscopy.
as §2, §3

activated form of Gαi1 = biological target: T3, activated form of Gαi1 (Homo sapiens, UniProt P63096); test: Polarization microscopy of probe in HEK293 cells, Gαi1 activated through the α2-adrenergic receptor by norepinephrine; settings: HEK293 cells cotransfected with Gαi1, Gβ1, Gγ2 and α2-adrenergic receptor; 10 μM norepinephrine; excitation polarization resolved single-photon confocal microscopy
T3 construct: expressed in transfected cells; host or cells: HEK293
Experimental: as §1, §2, §3

T2 sequence (P63096 whole entry Q204L): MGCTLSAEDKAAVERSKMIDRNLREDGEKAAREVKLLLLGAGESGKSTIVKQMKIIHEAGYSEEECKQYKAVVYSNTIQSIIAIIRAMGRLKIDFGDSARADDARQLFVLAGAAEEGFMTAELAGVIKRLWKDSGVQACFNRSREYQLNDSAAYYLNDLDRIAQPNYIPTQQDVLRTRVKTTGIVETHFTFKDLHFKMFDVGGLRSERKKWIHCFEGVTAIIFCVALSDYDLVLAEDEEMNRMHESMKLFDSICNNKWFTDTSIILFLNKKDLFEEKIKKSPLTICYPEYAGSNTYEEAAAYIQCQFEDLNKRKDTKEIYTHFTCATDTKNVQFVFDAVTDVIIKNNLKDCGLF
T3 sequence (P63096 whole entry): as the sequence (P63096 whole entry Q204L) above, with L204Q counted along it
T1 sequence (P62873 2-340 limits assumed): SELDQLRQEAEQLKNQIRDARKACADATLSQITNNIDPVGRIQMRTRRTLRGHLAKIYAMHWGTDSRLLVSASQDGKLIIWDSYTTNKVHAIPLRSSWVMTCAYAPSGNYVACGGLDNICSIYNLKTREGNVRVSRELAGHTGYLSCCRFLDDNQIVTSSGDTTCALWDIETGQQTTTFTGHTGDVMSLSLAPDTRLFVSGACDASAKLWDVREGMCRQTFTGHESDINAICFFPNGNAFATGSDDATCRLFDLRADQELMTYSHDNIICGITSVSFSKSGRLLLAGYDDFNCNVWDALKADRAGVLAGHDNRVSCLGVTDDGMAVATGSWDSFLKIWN
T1 sequence (P59768 2-68 limits assumed): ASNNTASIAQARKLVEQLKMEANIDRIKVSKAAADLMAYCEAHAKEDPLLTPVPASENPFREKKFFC

Row | Molecule | linear dichroism of the fluorescent moiety of the probe in presence of its target molecule compared with absence (GβGγ dimer) | linear dichroism of the fluorescent moiety of the probe in presence of its target molecule compared with absence [1] | linear dichroism of the fluorescent moiety of the probe in presence of activated Gαi1 compared with absence (activated form of Gαi1)
1 | B1 | statistically significantly higher | – | –
2 | B2 | – | statistically significantly higher | –
3 | B3 | – | statistically significantly lower | statistically significantly lower
4 | B4 | – | statistically significantly higher | statistically significantly higher
